The source of these data is patent US20220010003A1.

By EC80 is commonly meant the point of the concentration-response curve where the effect stands at 80%.

The target in experiment [1] is recombinant human periostin (human) (UniProt Q15063). The experiment is described as follows: ELISA, human periostin coated, biotinylated tenascin C titrated, Avidin-HRP detection. A general note: ELISA stands for enzyme-linked immunosorbent assay.
Experiment [2] shares this target. The experiment is described as follows: ELISA, human periostin coated, biotinylated collagen type I titrated, Avidin-HRP detection.

Sequence of recombinant human periostin (human) (Q15063 22-836 limits assumed): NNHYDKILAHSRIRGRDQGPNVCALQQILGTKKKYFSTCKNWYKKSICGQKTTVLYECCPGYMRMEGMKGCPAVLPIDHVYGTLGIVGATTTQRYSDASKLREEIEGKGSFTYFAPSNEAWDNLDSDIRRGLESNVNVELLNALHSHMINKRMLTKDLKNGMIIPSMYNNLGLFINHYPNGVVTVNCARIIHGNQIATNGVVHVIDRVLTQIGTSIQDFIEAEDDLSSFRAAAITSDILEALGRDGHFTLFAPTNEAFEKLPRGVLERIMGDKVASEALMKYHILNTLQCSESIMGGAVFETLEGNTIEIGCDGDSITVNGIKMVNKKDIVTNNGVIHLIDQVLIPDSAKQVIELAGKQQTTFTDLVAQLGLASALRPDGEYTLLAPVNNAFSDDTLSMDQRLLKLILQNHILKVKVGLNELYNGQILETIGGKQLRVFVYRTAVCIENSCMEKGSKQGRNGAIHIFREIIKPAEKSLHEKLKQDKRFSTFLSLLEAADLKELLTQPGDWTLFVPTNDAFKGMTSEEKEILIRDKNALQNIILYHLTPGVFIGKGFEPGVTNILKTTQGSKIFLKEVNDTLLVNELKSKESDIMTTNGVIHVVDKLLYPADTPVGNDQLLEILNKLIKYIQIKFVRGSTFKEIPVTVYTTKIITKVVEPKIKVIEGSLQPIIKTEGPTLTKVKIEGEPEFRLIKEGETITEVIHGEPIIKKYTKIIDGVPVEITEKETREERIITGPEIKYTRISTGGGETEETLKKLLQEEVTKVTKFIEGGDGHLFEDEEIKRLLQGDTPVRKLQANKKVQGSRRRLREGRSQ

Consider “recombinant human tenascin C (from UniProt P24821 23-625)”, for which, in experiment [1], the EC80 turned out to be 0.9 nM. Consider “human collagen type I (from UniProt P02452 162-1218; P08123 80-1119)”, for which the EC80 in experiment [2] amounted to 100 nM.
